One experiment has as its target pro-E-cadherin (human) (UniProt P12830). Kind of experiment: co-IP.
A further experiment deals with pro-N-cadherin (human) (UniProt P19022). Kind of experiment: co-IP.
UniProt P19022, sequence (P19022 26-906): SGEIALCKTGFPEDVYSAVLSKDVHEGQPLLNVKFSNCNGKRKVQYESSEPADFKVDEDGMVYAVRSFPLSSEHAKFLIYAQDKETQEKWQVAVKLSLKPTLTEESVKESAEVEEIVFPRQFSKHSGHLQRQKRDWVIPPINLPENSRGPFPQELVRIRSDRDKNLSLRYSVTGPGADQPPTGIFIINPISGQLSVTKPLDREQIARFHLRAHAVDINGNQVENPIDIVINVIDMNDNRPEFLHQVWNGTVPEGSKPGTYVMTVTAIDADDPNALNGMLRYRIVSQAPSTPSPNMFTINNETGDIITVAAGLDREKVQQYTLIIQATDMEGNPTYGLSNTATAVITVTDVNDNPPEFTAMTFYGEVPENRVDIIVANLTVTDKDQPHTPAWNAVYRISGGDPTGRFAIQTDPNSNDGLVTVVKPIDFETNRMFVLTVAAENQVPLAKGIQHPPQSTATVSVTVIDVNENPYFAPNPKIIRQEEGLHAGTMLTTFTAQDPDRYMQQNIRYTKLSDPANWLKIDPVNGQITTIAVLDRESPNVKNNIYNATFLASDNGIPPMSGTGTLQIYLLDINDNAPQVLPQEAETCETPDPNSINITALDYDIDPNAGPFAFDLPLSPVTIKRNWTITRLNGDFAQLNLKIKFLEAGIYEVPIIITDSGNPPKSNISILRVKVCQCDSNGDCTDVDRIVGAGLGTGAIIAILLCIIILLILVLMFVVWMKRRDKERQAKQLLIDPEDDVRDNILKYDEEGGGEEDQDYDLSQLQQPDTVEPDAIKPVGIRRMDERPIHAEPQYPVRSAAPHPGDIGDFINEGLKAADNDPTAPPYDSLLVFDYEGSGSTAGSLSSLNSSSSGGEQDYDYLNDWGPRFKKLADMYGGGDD

α-catenin, sequence (P35221 whole entry): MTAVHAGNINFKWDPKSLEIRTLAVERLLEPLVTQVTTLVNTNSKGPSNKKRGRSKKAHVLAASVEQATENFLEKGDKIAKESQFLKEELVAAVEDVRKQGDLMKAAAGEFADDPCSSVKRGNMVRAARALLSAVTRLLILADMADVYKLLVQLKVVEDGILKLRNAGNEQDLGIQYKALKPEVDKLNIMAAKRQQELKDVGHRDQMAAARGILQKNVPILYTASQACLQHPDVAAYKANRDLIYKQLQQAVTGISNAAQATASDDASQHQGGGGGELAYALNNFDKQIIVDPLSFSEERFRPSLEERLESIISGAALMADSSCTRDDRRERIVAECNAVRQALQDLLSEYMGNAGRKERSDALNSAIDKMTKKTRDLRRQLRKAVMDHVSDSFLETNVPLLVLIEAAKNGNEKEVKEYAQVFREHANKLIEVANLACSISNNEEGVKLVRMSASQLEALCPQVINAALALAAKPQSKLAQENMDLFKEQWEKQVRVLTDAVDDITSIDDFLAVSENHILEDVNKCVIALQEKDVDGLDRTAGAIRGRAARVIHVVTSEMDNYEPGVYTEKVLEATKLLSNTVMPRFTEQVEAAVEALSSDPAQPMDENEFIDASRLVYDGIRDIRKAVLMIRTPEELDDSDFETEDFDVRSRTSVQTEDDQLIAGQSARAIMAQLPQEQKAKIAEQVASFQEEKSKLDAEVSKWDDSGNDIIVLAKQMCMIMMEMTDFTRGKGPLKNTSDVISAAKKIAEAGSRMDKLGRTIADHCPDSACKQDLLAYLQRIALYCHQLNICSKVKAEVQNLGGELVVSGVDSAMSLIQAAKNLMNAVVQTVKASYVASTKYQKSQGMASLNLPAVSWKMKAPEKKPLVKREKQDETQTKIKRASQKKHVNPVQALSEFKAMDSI
UniProt P12830, sequence (P12830 23-882): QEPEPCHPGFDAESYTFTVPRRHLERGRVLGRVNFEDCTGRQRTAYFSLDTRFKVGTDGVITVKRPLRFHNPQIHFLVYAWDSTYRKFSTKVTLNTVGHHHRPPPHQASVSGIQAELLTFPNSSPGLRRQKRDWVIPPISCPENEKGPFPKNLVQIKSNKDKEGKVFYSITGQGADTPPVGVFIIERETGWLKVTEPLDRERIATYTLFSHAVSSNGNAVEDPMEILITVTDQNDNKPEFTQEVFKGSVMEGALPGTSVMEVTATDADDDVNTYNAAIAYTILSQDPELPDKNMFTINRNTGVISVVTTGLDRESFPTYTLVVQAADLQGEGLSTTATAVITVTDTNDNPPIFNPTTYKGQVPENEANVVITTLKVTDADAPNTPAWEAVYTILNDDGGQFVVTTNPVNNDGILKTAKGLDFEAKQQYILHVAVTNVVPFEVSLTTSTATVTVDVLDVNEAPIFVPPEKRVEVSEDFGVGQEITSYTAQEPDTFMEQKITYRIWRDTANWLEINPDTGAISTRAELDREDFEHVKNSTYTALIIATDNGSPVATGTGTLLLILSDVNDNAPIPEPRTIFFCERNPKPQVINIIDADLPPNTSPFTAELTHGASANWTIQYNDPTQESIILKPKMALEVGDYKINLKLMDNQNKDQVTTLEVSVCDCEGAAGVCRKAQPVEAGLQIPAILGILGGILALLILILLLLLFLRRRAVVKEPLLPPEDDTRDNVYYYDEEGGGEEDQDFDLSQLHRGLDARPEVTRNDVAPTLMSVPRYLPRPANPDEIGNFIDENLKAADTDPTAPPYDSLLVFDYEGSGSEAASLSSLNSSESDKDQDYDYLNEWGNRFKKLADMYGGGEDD

Take “α-catenin (from UniProt P35221 1-906) (natural protein)”: the percent of pro-cadherin molecules in a complex with α-catenin with pro-E-cadherin (human) worked out at 81%; in the experiment with pro-N-cadherin (human), 92%.

The values are drawn from paper PMC2742162.
